{
  "source": "patent US20240116984A1",
  "about": "(UNIVERSITY OF NOTRE DAME DU LAC, published 2024)",
  "binders": {"B1": {"name": "Compound 13, Ac-Val-Gln-Ile-aVal-Tyr-aLys-NH2 (peptide)", "peptide": "Ac-VQI[aVal]Y[N(NH2)Lys]-NH2", "SMILES": "CC[C@H](C)[C@H](NC(=O)[C@H](CCC(N)=O)NC(=O)[C@@H](NC(C)=O)C(C)C)C(=O)N(N)[C@H](C(=O)N[C@@H](Cc1ccc(O)cc1)C(=O)N(N)[C@@H](CCCCN)C(N)=O)C(C)C"}, "B2": {"name": "Compound 5, Ac-aVal-Gln-Ile-Val-Tyr-Lys-NH2 (peptide)", "peptide": "Ac-[aVal]QIVYK-NH2", "SMILES": "CC[C@H](C)[C@H](NC(=O)[C@H](CCC(N)=O)NC(=O)[C@H](C(C)C)N(N)C(C)=O)C(=O)N[C@H](C(=O)N[C@@H](Cc1ccc(O)cc1)C(=O)N[C@@H](CCCCN)C(N)=O)C(C)C"}, "B3": {"name": "Compound 6, Ac-Val-Gln-aIle-Val-Tyr-Lys-NH2 (peptide)", "peptide": "Ac-VQ[aIle′]VYK-NH2", "SMILES": "CC[C@H](C)[C@@H](C(=O)N[C@H](C(=O)N[C@@H](Cc1ccc(O)cc1)C(=O)N[C@@H](CCCCN)C(N)=O)C(C)C)N(N)C(=O)[C@H](CCC(N)=O)NC(=O)[C@@H](NC(C)=O)C(C)C"}, "B4": {"name": "Compound 4, Ac-aVal-Gln-aIle-Ile-Asn-Lys-NH2 (peptide)", "peptide": "Ac-[aVal]Q[aIle′]INK-NH2", "SMILES": "CC[C@H](C)[C@H](NC(=O)[C@H]([C@@H](C)CC)N(N)C(=O)[C@H](CCC(N)=O)NC(=O)[C@H](C(C)C)N(N)C(C)=O)C(=O)N[C@@H](CC(N)=O)C(=O)N[C@@H](CCCCN)C(N)=O"}, "B5": {"name": "Compound 2, Ac-Val-Gln-aIle-Ile-Asn-Lys-NH2 (peptide)", "peptide": "Ac-VQ[aIle′]INK-NH2", "SMILES": "CC[C@H](C)[C@H](NC(=O)[C@H]([C@@H](C)CC)N(N)C(=O)[C@H](CCC(N)=O)NC(=O)[C@@H](NC(C)=O)C(C)C)C(=O)N[C@@H](CC(N)=O)C(=O)N[C@@H](CCCCN)C(N)=O"}, "B6": {"name": "Compound 12, Ac-Val-Gln-aIle-Val-aTyr-Lys-NH2 (peptide)", "peptide": "Ac-VQ[aIle′]V[aTyr]K-NH2", "SMILES": "CC[C@H](C)[C@@H](C(=O)N[C@H](C(=O)N(N)[C@@H](Cc1ccc(O)cc1)C(=O)N[C@@H](CCCCN)C(N)=O)C(C)C)N(N)C(=O)[C@H](CCC(N)=O)NC(=O)[C@@H](NC(C)=O)C(C)C"}},
  "note": "Starred links: 1 amine or outer side, 2 acyl side, 3 side chain; linkers in the order of their positions; H or OH if unused. Non-standard residues stand in square brackets, D forms with d. Primed or numbered codes have the meaning given here. aTyr = Tyr with backbone N-amino (N-aminated amide nitrogen), NN([C@@H](Cc1ccc(O[*:3])cc1)C(=O)[*:2])[*:1]; aIle′ = Ile with backbone N-amino (N-aminated amide nitrogen), CC[C@H](C)[C@@H](C(=O)[*:2])N(N)[*:1]; aVal = Val with backbone N-amino (N-aminated amide nitrogen), CC(C)[C@@H](C(=O)[*:2])N(N)[*:1]; N(NH2)Lys = NCCCC[C@H](NN)C(=O)O",
  "data": [
    {"target": "Human tauP301L (0N4R), recombinant, N-terminal His tag (human, UniProt P10636 2-758)", "sequence (P10636 other isoform, or with tags, fused parts or gaps)": "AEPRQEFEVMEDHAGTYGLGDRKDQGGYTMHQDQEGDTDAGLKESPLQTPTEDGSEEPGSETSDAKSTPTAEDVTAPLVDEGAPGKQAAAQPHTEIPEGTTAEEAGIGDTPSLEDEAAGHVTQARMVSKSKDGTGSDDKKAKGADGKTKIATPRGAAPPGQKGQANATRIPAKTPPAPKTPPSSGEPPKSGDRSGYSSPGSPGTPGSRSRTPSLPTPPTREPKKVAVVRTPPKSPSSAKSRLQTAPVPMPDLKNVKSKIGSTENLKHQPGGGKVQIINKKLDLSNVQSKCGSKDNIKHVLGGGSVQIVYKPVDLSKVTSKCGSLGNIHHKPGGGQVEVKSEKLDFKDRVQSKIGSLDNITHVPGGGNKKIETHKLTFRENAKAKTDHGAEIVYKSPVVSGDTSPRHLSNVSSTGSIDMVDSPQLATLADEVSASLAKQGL", "assay": "cell-based or functional assay", "units": {"end-point ThT fluorescence of heparin-induced tau aggregation (Tau 10 µM: Inhibitor 20 µM, 48 h)": "%", "fibril capping IC50 in cells (mature tauP301L fibrils incubated 36 h with inhibitor, then HEK293 tau-RD(LM)-YFP cells)": "µM"}, "values": [
      {"binder": "B1", "end-point ThT fluorescence of heparin-induced tau aggregation (Tau 10 µM: Inhibitor 20 µM, 48 h)": "≤ 50", "fibril capping IC50 in cells (mature tauP301L fibrils incubated 36 h with inhibitor, then HEK293 tau-RD(LM)-YFP cells)": "~5"},
      {"binder": "B2", "end-point ThT fluorescence of heparin-induced tau aggregation (Tau 10 µM: Inhibitor 20 µM, 48 h)": "≤ 50"},
      {"binder": "B3", "end-point ThT fluorescence of heparin-induced tau aggregation (Tau 10 µM: Inhibitor 20 µM, 48 h)": "≤ 50"},
      {"binder": "B4", "end-point ThT fluorescence of heparin-induced tau aggregation (Tau 10 µM: Inhibitor 20 µM, 48 h)": "≤ 50"},
      {"binder": "B5", "end-point ThT fluorescence of heparin-induced tau aggregation (Tau 10 µM: Inhibitor 20 µM, 48 h)": "≤ 50"},
      {"binder": "B6", "end-point ThT fluorescence of heparin-induced tau aggregation (Tau 10 µM: Inhibitor 20 µM, 48 h)": "≤ 50", "fibril capping IC50 in cells (mature tauP301L fibrils incubated 36 h with inhibitor, then HEK293 tau-RD(LM)-YFP cells)": "~5"}
    ]}
  ]
}
